The target of data set [1] is aggregated dGAE (Homo sapiens, UniProt P10636). Nature of the data set: Capture ELISA ranking of mAbs on dGAE aggregates. The following applies: 1 μg/ml capture mAb, 800 nM aggregated dGAE. The data set is classed as binding. The protocol:
The aggregation cascade of natively unfolded tau into insoluble filaments is a defining pathological feature of AD. Therefore, it is logical to target aggregated tau filaments for both therapeutic and diagnostic purposes. The following experiment was performed to assess the ability of our dGA mAb panel to bind aggregated dGAE using a capture ELISA method. Aggregates were prepared by incubating 100 μM dGAE and 10 mM dTT for 24 h at 37° C. with shaking at 700 RPM. The following day, dGAE aggregates were centrifuged at 17,000×g for 20 min and the supernatant was removed. The remaining pellet was washed with 10 mM phosphate buffer and centrifuged as above. Washing was repeated a further two times to remove any remaining dGAE monomer. The dGAE pellet was resuspended in 100 μl of 10 mM phosphate buffer. (Using a separate capture ELISA based quantification, we have worked out the efficiency of our dGAE aggregation as 80%)
For assessing the mAb panel for aggregate binding, designated rows of a maxisorp plate were coated with 1 μg/ml of each of the capture mAbs (S1D12, S1G2, CA4, NS2A1, CE2, E2E8 and CB7) and blocked as before. Following washing, 800 nM aggregated dGAE was added to the designated wells, double diluted across the plate and incubated for 1 h at RT. The plate was washed again and 1 μg/ml S1G2 scAb was added as detection antibody and incubated for 1 h at RT. To the row where S1G2 mAb was used for capture, […] s1D12 scAb was added as […] instead of S1G2. The assay was developed using HRP labelled HuCK as described previously.

The subject of data set [2] is alanine substituted 13mer tau peptides. Briefly: Alanine scanning mutagenesis (ASM) peptide ELISA. The data set is classed as binding, human. The following applies: numbering according to SEQ ID NO: 1; description text 'may be'. As for the experimental part: To further elucidate epitopes of the scAb panel, and identify the critical amino acids needed for binding, alanine scanning mutagenesis of the parent 13 aa peptides for scAbs CE2, S1D12, CA4 and S1G2 was performed. […] Briefly, 5 μg/ml streptavidin (Thermo Fisher) was adsorbed to Nunc 96-well MaxiSorp plates and following incubation at 37° C., for 1 h, the plates were washed as normal and blocked with 2% MPBS. N-terminally biotinylated peptides (Prolmmune Ltd) were added to the plates and incubated for 1 h at 37° C. Subsequently, test scAbs at starting concentrations of 100-500 nM was added and double diluted across the plate for each peptide and incubated for 1 h at 37° C. Rest of the ELISA was conducted as described above and the plates were read at absorbance 450 nm. Immunoreactivity of the scAb of interest was quantified as the % of scAb was bound for each peptide at a chosen concentration (FIG. 15-20).

For data set [3], the system named is hT40, dGA, dGAE and truncated tau fragments/peptides. Briefly: Binding ELISA for epitope mapping with truncated tau proteins and biotinylated 13mer peptides. Also on record: species or system human. The following applies: direct binding ELISA. As for the experimental part: A series of binding ELISA was performed using various truncated versions of the tau protein and 13mer peptide libraries spanning the entire hT40 molecule for mapping the epitopes of anti-tau scAbs (Full list of protein antigens used is given in Table 14). In general, ELISA plates were coated with 1 μg/ml hT40 or dGA or dGAE or other truncated versions of the protein and in the case of biotinylated peptides, plates were coated with 5 μg/ml Streptavidin followed by 1 μg/ml biotinylated peptide. The plates were blocked with 2% MPBS and scAb samples added at desired starting concentrations and double diluted across the plate. Binding was detected using anti-Human C Kappa HRP conjugated secondary antibody and the resulting immunoreaction was developed and absorbance values measured as described above.
Similarly, dGA binding ‘NS’, ‘S’ and ‘M’ group scAbs were subjected to further antigen binding ELISA using shorter tau proteins and biotinylated 13mer peptides as shown below (FIGS. 10A-F) and (FIGS. 11A-R).
For anti-tau mAb SPR measurements (Biacore X100™) and epitope mapping, the same methodologies described above (see Example 16) were followed.

In data set [4] the target is dGA (Homo sapiens, UniProt P10636). Nature of the data set: Biacore X100 SPR, scAb captured via anti-HuCk, dGA as analyte. Conditions: dissociation rate. The data set is classed as binding. The protocol: Surface plasmon resonance (SPR) is widely regarded as the gold standard for real time measurement of protein-protein interactions such as antibody binding. All SPR experiments were carried out using a Biacore X100 machine and HBS EP+ running buffer (GE Healthcare). A ‘capture’ method was followed for affinity measurements, where an anti-human constant kappa chain (HuCk) antibody was conjugated to the surface of a CM5 sensor chip using an amine coupling kit and scAb molecules were immobilised via their HuCk domain. Amine coupling is a very common approach for immobilising the ligand to the chip surface. The chip surface has a dextran matrix derivatised with carboxyl groups, which after activation with N-hydroxysuccinimide (NHS) and 1-ethyl-3-(3-dimethylaminopropyl) carbodiimide (EDC), form reactive succinimide esters which allows the covalent capturing of the ligand via any available primary amine groups (e.g. Lysine) on the ligand (in this case anti-HuCk antibody). The capture antibody was diluted 1/100 in 10 mM Sodium acetate buffer pH 5.0 and passed over the activated chip surface for a period of at least 420 s. Final ligand immobilisation levels over 12,000 RU were deemed to be satisfactory.
Sequence of dGA (P10636 614-707): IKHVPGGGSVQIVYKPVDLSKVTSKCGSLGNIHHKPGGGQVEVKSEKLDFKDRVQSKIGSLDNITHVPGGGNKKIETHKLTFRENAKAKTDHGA
Following immobilisation, the level of each scAb to be captured was identified using the standard SPR equation with a theoretical RMax of 100 RU. Analyte MW refers to the molecular weight of hT40 or dGA/dGAE molecules, while ligand MW refers to the molecular weight of the scAbs tested. RL is the desired capture level and S refers to the stoichiometric ratio:
The scAb to be tested was added only to flow cell 2 so that flow cell 1 could act as a control to subtract any interaction with the analyte and the chip surface. Both single and multi-cycle runs were utilised using wizards developed in the Biacore X100 control software which are both accepted methods of kinetic analysis (Karlsson, R., et al. Analyzing a kinetic titration series using affinity biosensors (2006) Analytical Biochemistry 349:136-47). The multi-cycle protocol was as follows-Three start-up cycles composed of an initial capture, to the desired level, of the scAb to be tested was performed followed by a 30 s injection of glycine buffer pH 2.0 after each cycle to regenerate the chip surface. The regeneration step removed any captured scAb whilst leaving the capture antibody intact and able to repeat the capture for the next cycle. Following three start-up cycles increasing concentrations (0.15625 nM-100 nM) of the target to be tested were added to the chip surface after the desired scAb capture. The target was added for a 120 s association period and 420 s dissociation period followed by another regeneration, 30 s injection of glycine buffer pH 2.0 in between each cycle.
The single cycle kinetics protocol was similar and utilised the same level of scAb capture. Three start-up cycles were used followed by 5 increasing concentrations of the analyte (6.25 nM-100 nM) for an association period of 120 s followed by a dissociation period of 420 s for each concentration. In single cycle kinetics the regeneration step was performed only after the final analyte concentration was added. Binding responses were analysed in Biacore X100 evaluation software and data fitted to a 1:1 binding model to obtain kinetic and affinity characterisation.

Data set [5] has as its target htau40 (Homo sapiens, UniProt P10636). Briefly: Biacore X100 SPR of anti-tau mAbs on immobilised htau40. The class given is binding. In outline: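 htau40 amine-coupled to a CM5 chip (~250 RU); mAb injected at 0.78–25 nM in HBS-EP+ at 30 μL/min, 120 s association, 600 s dissociation, glycine pH 1.5 regeneration. Kinetics and affinity from 1:1 binding fit with reference-cell subtraction.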

Data set [6] concerns the target hT40 (Homo sapiens, UniProt P10636). Briefly: Biacore X100 SPR, scAb captured via anti-HuCk, hT40 as analyte. The data set is classed as binding. The following applies: scAb, Table 23, T441 (hT40). In outline:
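Captured scAb on anti-HuCk CM5 surface (flow cell 1 as reference) in HBS-EP+, capture set for theoretical RMax 100 RU; hT40 injected multi-cycle (0.15625–100 nM) or single-cycle (6.25–100 nM), 120 s association, 420 s dissociation, glycine pH 2.0 regeneration. Kinetics and affinity from 1:1 binding model fit.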

Where [7] appears, read: mAb, Table 27, immobilised hT40.
The mark [8] stands for this setting: newly converted mAbs, Table 25 (Example 28), hT40.

The text below walks through data of patent US12624096B2, “Anti-tau antibodies and methods of use thereof” (GTInvent Limited, priority 2020, dated 2026).

“Also recorded” adds a separate entry of the source.

Sequence of htau40 (P10636 1-441 isoform P10636-8): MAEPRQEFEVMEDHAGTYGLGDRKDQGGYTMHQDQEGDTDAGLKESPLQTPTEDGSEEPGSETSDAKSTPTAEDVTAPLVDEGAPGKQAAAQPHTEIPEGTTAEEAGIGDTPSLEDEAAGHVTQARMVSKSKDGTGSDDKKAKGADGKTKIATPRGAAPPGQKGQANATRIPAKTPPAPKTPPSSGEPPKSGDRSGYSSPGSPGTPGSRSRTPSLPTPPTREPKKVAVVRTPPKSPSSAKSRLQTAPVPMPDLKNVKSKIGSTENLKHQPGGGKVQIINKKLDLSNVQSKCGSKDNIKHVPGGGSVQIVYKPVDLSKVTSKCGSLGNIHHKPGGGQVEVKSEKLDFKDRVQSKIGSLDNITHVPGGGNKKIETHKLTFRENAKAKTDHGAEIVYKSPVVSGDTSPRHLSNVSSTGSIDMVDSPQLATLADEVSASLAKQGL
Sequence of hT40 (P10636 1-441 isoform P10636-8): as above
Sequence of aggregated dGAE (P10636 614-708): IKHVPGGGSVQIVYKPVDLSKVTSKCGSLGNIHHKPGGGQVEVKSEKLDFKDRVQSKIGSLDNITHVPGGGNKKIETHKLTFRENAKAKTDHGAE

B1: E2E8 mAb: E2E8 reformatted as mAb, SEQ ID NO: 493 and 494 (antibody)
heavy: QVQLQESGPSLVKPSQTLSLTCTVSGFSLTDRGVAWVRQAPGKALEWVGTMRSGGTIDYNPALKSRLSITRDTSKSQVFLSLSSVTTEDMAMYYCARGYLSGDRYAWGRGLLVTVSSAKTTAPSVYPLAPVCGDTTGSSVTLGCLVKGYFPEPVTLTWNSGSLSSGVHTFPAVLQSDLYTLSSSVTVTSSTWPSQSITCNVAHPASSTKVDKKIEPRGPTIKPCPPCKCPAPNLLGGPSVFIFPPKIKDVLMISLSPIVTCVVVDVSEDDPDVQISWFVNNVEVHTAQTQTHREDYNSTLRVVSALPIQHQDWMSGKEFKCKVNNKDLPAPIERTISKPKGSVRAPQVYVLPPPEEEMTKKQVTLTCMVTDFMPEDIYVEWTNNGKTELNYKNTEPVLDSDGSYFMYSKLRVEKKNWVERNSYSCSVVHEGLHNHHTTKSFSRTPGK
light: QAVLTQPSSVSKSLGQSVSIACSGSRSDIGYGNYVSWFQQIPGSAPKLLIYDTNTRASGVPDRFSGARSGNTATLTINSLQAEDEADYYCANIDSSRSHLFGSGTRLTVLGGQPKSSPSVTLFPPSSEELETNKATLVCTITDFYPGVVTVDWKVDGTPVTQGMETTQPSKQSNNKYMASSYLTLTARAWERHSSYSCQVTHEGHTVEKSLSRADCS
modifications: E2E8 mAB Heavy Chain; E2E8 mAB Light Chain
In the case of B1, the “ability to capture aggregated dGAE” value in data set [1] was “most efficient at capturing aggregated dGAE”.

B2: CE2: anti-tau clone referred to as CE2 or E1B8, SEQ ID NO: 366 (protein)
scFv: QVQLQESGPSLVKPSQTLSLTCTVSGFSLTNYPVGWVRQAPGKALEWIGNIENDGSANYASALKSRLSITRDTSKNQVSLSLSSATTEDTAVYYCGREFGGSDGYTYFVDIDYWGPGLLVTVSSEGKSSGASGESKVDDQAVLTQPSSVSKSLGQSVSITCSGSSSNVGYGNYVSWFQQVPGSAPKILIYGATSRASGVPDRFSGSRSGNTATLTITSLQAEDEADYYCASYDGSSSGVFGSGTRLTVLG
modifications: CE2/E1B8 amino acid sequence
B2: the “Critical residues of the epitope” value in data set [2] is on record as 323 (G), 324 (S), 325 (L), 326 (G), 327 (N) and/or 328 (I). In addition, the “cross-reactivity of 'E' group scAbs using hT40, dGA and dGAE antigens” value in data set [3] is given as “cross-reacts with dGA; also recorded: specific binding to the tau peptide representing amino acids from 313-336”. Besides, the “Kd” value in data set [4] amounted to 0.00242 s⁻¹. In addition, the values for the ka in data set [5] (setting [7]), in data set [5] (setting [8]) and in data set [6] were 457900 M⁻¹ s⁻¹, 323800 M⁻¹ s⁻¹ and 213700 M⁻¹ s⁻¹, respectively. Also, the values for the kd in data set [5] (setting [7]), in data set [5] (setting [8]) and in data set [6] were 0.005218 s⁻¹, 0.001367 s⁻¹ and 0.001077 s⁻¹, respectively.

B3: S1G2 mAb: S1G2 reformatted as mAb, SEQ ID NO: 457 and 458 (antibody)
heavy: QVQLQESGPSLVKPSQTLSLTCTVSGFSLTSNSVGWVRQAPGKAPEWVAGIDTDGEEGYNPALNSRLSITRDTSKSQVSLSLSSVTSEDTAVYYCGRSYRADGLAYGYVQAIDYWGPGLLVTVSSAKTTAPSVYPLAPVCGDTTGSSVTLGCLVKGYFPEPVTLTWNSGSLSSGVHTFPAVLQSDLYTLSSSVTVTSSTWPSQSITCNVAHPASSTKVDKKIEPRGPTIKPCPPCKCPAPNLLGGPSVFIFPPKIKDVLMISLSPIVTCVVVDVSEDDPDVQISWFVNNVEVHTAQTQTHREDYNSTLRVVSALPIQHQDWMSGKEFKCKVNNKDLPAPIERTISKPKGSVRAPQVYVLPPPEEEMTKKQVTLTCMVTDFMPEDIYVEWTNNGKTELNYKNTEPVLDSDGSYFMYSKLRVEKKNWVERNSYSCSVVHEGLHNHHTTKSFSRTPGK
light: QAVVTQPSSVSGSLGQRVSITCSGSFIGISSVGWFQQLPGSGLRTIIVASDGRPSGVPDRFSMSKSGNTATLTISSLQAEDEADYFCGSSDRTPYTGVFGSGTRLTVLGGQPKSSPSVTLFPPSSEELETNKATLVCTITDFYPGVVTVDWKVDGTPVTQGMETTQPSKQSNNKYMASSYLTLTARAWERHSSYSCQVTHEGHTVEKSLSRADCS
modifications: S1G2 mAB Heavy Chain; S1G2 mAB Light Chain
On to B3, for which the “ability to capture aggregated dGAE” value in data set [1] is “most efficient at capturing aggregated dGAE”.
